Data published in patent US20190338009A1 (ZEALAND PHARMA A S, published 2019).
Square brackets hold non-standard residues; d marks the D form. Aib = CC(C)(N)C(=O)O

T1: human GLP-2 receptor (hGLP2-R) (human, UniProt O95838 1-553)
T1 sequence (looked up): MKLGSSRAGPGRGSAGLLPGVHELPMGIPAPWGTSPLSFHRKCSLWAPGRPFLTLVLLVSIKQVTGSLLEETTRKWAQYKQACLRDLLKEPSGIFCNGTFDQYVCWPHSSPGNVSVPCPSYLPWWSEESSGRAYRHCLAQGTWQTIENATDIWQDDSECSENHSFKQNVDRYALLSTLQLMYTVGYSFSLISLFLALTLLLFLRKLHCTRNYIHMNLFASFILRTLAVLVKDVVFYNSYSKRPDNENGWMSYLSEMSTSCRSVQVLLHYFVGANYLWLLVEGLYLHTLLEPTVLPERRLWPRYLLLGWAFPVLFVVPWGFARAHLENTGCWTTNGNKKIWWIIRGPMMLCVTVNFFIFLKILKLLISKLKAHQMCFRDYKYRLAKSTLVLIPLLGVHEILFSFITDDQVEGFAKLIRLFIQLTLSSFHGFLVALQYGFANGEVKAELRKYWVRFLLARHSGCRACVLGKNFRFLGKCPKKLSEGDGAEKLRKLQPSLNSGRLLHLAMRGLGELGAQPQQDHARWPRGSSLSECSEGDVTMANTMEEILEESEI

B1: Compound 16 (peptide)
peptide: H-H[Aib]EGTFTSELATILDEQAARDFIAWLIKHKITD-OH
SMILES: CC[C@H](C)[C@H](NC(=O)[C@H](Cc1ccccc1)NC(=O)[C@H](CC(=O)O)NC(=O)[C@H](CCCNC(=N)N)NC(=O)[C@H](C)NC(=O)[C@H](C)NC(=O)[C@H](CCC(N)=O)NC(=O)[C@H](CCC(=O)O)NC(=O)[C@H](CC(=O)O)NC(=O)[C@H](CC(C)C)NC(=O)[C@@H](NC(=O)[C@@H](NC(=O)[C@H](C)NC(=O)[C@H](CC(C)C)NC(=O)[C@H](CCC(=O)O)NC(=O)[C@H](CO)NC(=O)[C@@H](NC(=O)[C@H](Cc1ccccc1)NC(=O)[C@@H](NC(=O)CNC(=O)[C@H](CCC(=O)O)NC(=O)C(C)(C)NC(=O)[C@@H](N)Cc1c[nH]cn1)[C@@H](C)O)[C@@H](C)O)[C@@H](C)O)[C@@H](C)CC)C(=O)N[C@@H](C)C(=O)N[C@@H](Cc1c[nH]c2ccccc12)C(=O)N[C@@H](CC(C)C)C(=O)N[C@H](C(=O)N[C@@H](CCCCN)C(=O)N[C@@H](Cc1c[nH]cn1)C(=O)N[C@@H](CCCCN)C(=O)N[C@H](C(=O)N[C@H](C(=O)N[C@@H](CC(=O)O)C(=O)O)[C@@H](C)O)[C@@H](C)CC)[C@@H](C)CC
B2: Compound 11 (peptide)
peptide: H-H[Aib]EGTFTSELATILDGKAARDFIAWLIAHKITD-OH
SMILES: CC[C@H](C)[C@H](NC(=O)[C@H](CC(C)C)NC(=O)[C@H](Cc1c[nH]c2ccccc12)NC(=O)[C@H](C)NC(=O)[C@@H](NC(=O)[C@H](Cc1ccccc1)NC(=O)[C@H](CC(=O)O)NC(=O)[C@H](CCCNC(=N)N)NC(=O)[C@H](C)NC(=O)[C@H](C)NC(=O)[C@H](CCCCN)NC(=O)CNC(=O)[C@H](CC(=O)O)NC(=O)[C@H](CC(C)C)NC(=O)[C@@H](NC(=O)[C@@H](NC(=O)[C@H](C)NC(=O)[C@H](CC(C)C)NC(=O)[C@H](CCC(=O)O)NC(=O)[C@H](CO)NC(=O)[C@@H](NC(=O)[C@H](Cc1ccccc1)NC(=O)[C@@H](NC(=O)CNC(=O)[C@H](CCC(=O)O)NC(=O)C(C)(C)NC(=O)[C@@H](N)Cc1c[nH]cn1)[C@@H](C)O)[C@@H](C)O)[C@@H](C)O)[C@@H](C)CC)[C@@H](C)CC)C(=O)N[C@@H](C)C(=O)N[C@@H](Cc1c[nH]cn1)C(=O)N[C@@H](CCCCN)C(=O)N[C@H](C(=O)N[C@H](C(=O)N[C@@H](CC(=O)O)C(=O)O)[C@@H](C)O)[C@@H](C)CC
B3: Compound 14 (peptide)
peptide: H-H[Aib]EGTFTSELATILDEQAARDFIAWLYAHKITD-OH
SMILES: CC[C@H](C)[C@H](NC(=O)[C@H](Cc1ccccc1)NC(=O)[C@H](CC(=O)O)NC(=O)[C@H](CCCNC(=N)N)NC(=O)[C@H](C)NC(=O)[C@H](C)NC(=O)[C@H](CCC(N)=O)NC(=O)[C@H](CCC(=O)O)NC(=O)[C@H](CC(=O)O)NC(=O)[C@H](CC(C)C)NC(=O)[C@@H](NC(=O)[C@@H](NC(=O)[C@H](C)NC(=O)[C@H](CC(C)C)NC(=O)[C@H](CCC(=O)O)NC(=O)[C@H](CO)NC(=O)[C@@H](NC(=O)[C@H](Cc1ccccc1)NC(=O)[C@@H](NC(=O)CNC(=O)[C@H](CCC(=O)O)NC(=O)C(C)(C)NC(=O)[C@@H](N)Cc1c[nH]cn1)[C@@H](C)O)[C@@H](C)O)[C@@H](C)O)[C@@H](C)CC)C(=O)N[C@@H](C)C(=O)N[C@@H](Cc1c[nH]c2ccccc12)C(=O)N[C@@H](CC(C)C)C(=O)N[C@@H](Cc1ccc(O)cc1)C(=O)N[C@@H](C)C(=O)N[C@@H](Cc1c[nH]cn1)C(=O)N[C@@H](CCCCN)C(=O)N[C@H](C(=O)N[C@H](C(=O)N[C@@H](CC(=O)O)C(=O)O)[C@@H](C)O)[C@@H](C)CC
B4: Compound 10 (peptide)
peptide: H-H[Aib]EGTFTSELSTILDEQAARDFIAWLIAHKITD-OH
SMILES: CC[C@H](C)[C@H](NC(=O)[C@H](CC(C)C)NC(=O)[C@H](Cc1c[nH]c2ccccc12)NC(=O)[C@H](C)NC(=O)[C@@H](NC(=O)[C@H](Cc1ccccc1)NC(=O)[C@H](CC(=O)O)NC(=O)[C@H](CCCNC(=N)N)NC(=O)[C@H](C)NC(=O)[C@H](C)NC(=O)[C@H](CCC(N)=O)NC(=O)[C@H](CCC(=O)O)NC(=O)[C@H](CC(=O)O)NC(=O)[C@H](CC(C)C)NC(=O)[C@@H](NC(=O)[C@@H](NC(=O)[C@H](CO)NC(=O)[C@H](CC(C)C)NC(=O)[C@H](CCC(=O)O)NC(=O)[C@H](CO)NC(=O)[C@@H](NC(=O)[C@H](Cc1ccccc1)NC(=O)[C@@H](NC(=O)CNC(=O)[C@H](CCC(=O)O)NC(=O)C(C)(C)NC(=O)[C@@H](N)Cc1c[nH]cn1)[C@@H](C)O)[C@@H](C)O)[C@@H](C)O)[C@@H](C)CC)[C@@H](C)CC)C(=O)N[C@@H](C)C(=O)N[C@@H](Cc1c[nH]cn1)C(=O)N[C@@H](CCCCN)C(=O)N[C@H](C(=O)N[C@H](C(=O)N[C@@H](CC(=O)O)C(=O)O)[C@@H](C)O)[C@@H](C)CC
B5: Compound 13 (peptide)
peptide: H-H[Aib]EGTFTSELATILDEQAARDFIAWLQAHKITD-OH
SMILES: CC[C@H](C)[C@H](NC(=O)[C@H](Cc1ccccc1)NC(=O)[C@H](CC(=O)O)NC(=O)[C@H](CCCNC(=N)N)NC(=O)[C@H](C)NC(=O)[C@H](C)NC(=O)[C@H](CCC(N)=O)NC(=O)[C@H](CCC(=O)O)NC(=O)[C@H](CC(=O)O)NC(=O)[C@H](CC(C)C)NC(=O)[C@@H](NC(=O)[C@@H](NC(=O)[C@H](C)NC(=O)[C@H](CC(C)C)NC(=O)[C@H](CCC(=O)O)NC(=O)[C@H](CO)NC(=O)[C@@H](NC(=O)[C@H](Cc1ccccc1)NC(=O)[C@@H](NC(=O)CNC(=O)[C@H](CCC(=O)O)NC(=O)C(C)(C)NC(=O)[C@@H](N)Cc1c[nH]cn1)[C@@H](C)O)[C@@H](C)O)[C@@H](C)O)[C@@H](C)CC)C(=O)N[C@@H](C)C(=O)N[C@@H](Cc1c[nH]c2ccccc12)C(=O)N[C@@H](CC(C)C)C(=O)N[C@@H](CCC(N)=O)C(=O)N[C@@H](C)C(=O)N[C@@H](Cc1c[nH]cn1)C(=O)N[C@@H](CCCCN)C(=O)N[C@H](C(=O)N[C@H](C(=O)N[C@@H](CC(=O)O)C(=O)O)[C@@H](C)O)[C@@H](C)CC
B6: Compound 12 (peptide)
peptide: H-H[Aib]EGTFTSELATILDEQAARDFIAWLHAHKITD-OH
SMILES: CC[C@H](C)[C@H](NC(=O)[C@H](Cc1ccccc1)NC(=O)[C@H](CC(=O)O)NC(=O)[C@H](CCCNC(=N)N)NC(=O)[C@H](C)NC(=O)[C@H](C)NC(=O)[C@H](CCC(N)=O)NC(=O)[C@H](CCC(=O)O)NC(=O)[C@H](CC(=O)O)NC(=O)[C@H](CC(C)C)NC(=O)[C@@H](NC(=O)[C@@H](NC(=O)[C@H](C)NC(=O)[C@H](CC(C)C)NC(=O)[C@H](CCC(=O)O)NC(=O)[C@H](CO)NC(=O)[C@@H](NC(=O)[C@H](Cc1ccccc1)NC(=O)[C@@H](NC(=O)CNC(=O)[C@H](CCC(=O)O)NC(=O)C(C)(C)NC(=O)[C@@H](N)Cc1c[nH]cn1)[C@@H](C)O)[C@@H](C)O)[C@@H](C)O)[C@@H](C)CC)C(=O)N[C@@H](C)C(=O)N[C@@H](Cc1c[nH]c2ccccc12)C(=O)N[C@@H](CC(C)C)C(=O)N[C@@H](Cc1c[nH]cn1)C(=O)N[C@@H](C)C(=O)N[C@@H](Cc1c[nH]cn1)C(=O)N[C@@H](CCCCN)C(=O)N[C@H](C(=O)N[C@H](C(=O)N[C@@H](CC(=O)O)C(=O)O)[C@@H](C)O)[C@@H](C)CC
B7: Compound 15 (peptide)
peptide: H-H[Aib]EGTFTSELATILDEQAARDFIAWLIQHKITD-OH
SMILES: CC[C@H](C)[C@H](NC(=O)[C@H](Cc1ccccc1)NC(=O)[C@H](CC(=O)O)NC(=O)[C@H](CCCNC(=N)N)NC(=O)[C@H](C)NC(=O)[C@H](C)NC(=O)[C@H](CCC(N)=O)NC(=O)[C@H](CCC(=O)O)NC(=O)[C@H](CC(=O)O)NC(=O)[C@H](CC(C)C)NC(=O)[C@@H](NC(=O)[C@@H](NC(=O)[C@H](C)NC(=O)[C@H](CC(C)C)NC(=O)[C@H](CCC(=O)O)NC(=O)[C@H](CO)NC(=O)[C@@H](NC(=O)[C@H](Cc1ccccc1)NC(=O)[C@@H](NC(=O)CNC(=O)[C@H](CCC(=O)O)NC(=O)C(C)(C)NC(=O)[C@@H](N)Cc1c[nH]cn1)[C@@H](C)O)[C@@H](C)O)[C@@H](C)O)[C@@H](C)CC)C(=O)N[C@@H](C)C(=O)N[C@@H](Cc1c[nH]c2ccccc12)C(=O)N[C@@H](CC(C)C)C(=O)N[C@H](C(=O)N[C@@H](CCC(N)=O)C(=O)N[C@@H](Cc1c[nH]cn1)C(=O)N[C@@H](CCCCN)C(=O)N[C@H](C(=O)N[C@H](C(=O)N[C@@H](CC(=O)O)C(=O)O)[C@@H](C)O)[C@@H](C)CC)[C@@H](C)CC

What follows are binders tested against T1, human GLP-2 receptor (hGLP2-R) (assay: cell-based or functional assay).

| Binder | EC50 GLP-2 (nM); cAMP AlphaScreen, HEK293 cells expressing human GLP-2R [nM] |
| --- | --- |
| B1 | 0.026 |
| B2 | 0.085 |
| B3 | 0.049 |
| B4 | 0.05 |
| B5 | 0.083 |
| B6 | 0.076 |
| B7 | 0.038 |

What follows are binders tested against human glucagon-like peptide 1 receptor (GLP-1R) (human, UniProt P43220 24-463) (assay: cell-based or functional assay).

| Binder | EC50 GLP-1 (nM); cAMP AlphaScreen, HEK293 cells expressing human GLP-1R [nM] |
| --- | --- |
| B1 | 0.006 |
| B2 | 0.011 |
| B3 | 0.021 |
| B4 | 0.005 |
| B5 | 0.016 |
| B6 | 0.055 |
| B7 | 0.005 |
